We go through 1 molecule from patent US20140271699A1 (US Dept. of Health and Human Services, published 2014).

This experiment concerns the target RSV F glycoprotein as expressed by RSV (on RSV-infected HEp-2 cells / on virus) (RSV (strain  for this assay), UniProt P03420 26-109; P03420 137-574). As to the kind of experiment: cell-based or functional assay.

RSV F glycoprotein as expressed by RSV (on RSV-infected HEp-2 cells / on virus), sequence (P03420 26-109, chain 1 of 2): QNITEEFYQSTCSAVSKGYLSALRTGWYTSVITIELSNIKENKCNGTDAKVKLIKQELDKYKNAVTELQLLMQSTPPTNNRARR
RSV F glycoprotein as expressed by RSV (on RSV-infected HEp-2 cells / on virus), sequence (P03420 137-574, chain 2 of 2): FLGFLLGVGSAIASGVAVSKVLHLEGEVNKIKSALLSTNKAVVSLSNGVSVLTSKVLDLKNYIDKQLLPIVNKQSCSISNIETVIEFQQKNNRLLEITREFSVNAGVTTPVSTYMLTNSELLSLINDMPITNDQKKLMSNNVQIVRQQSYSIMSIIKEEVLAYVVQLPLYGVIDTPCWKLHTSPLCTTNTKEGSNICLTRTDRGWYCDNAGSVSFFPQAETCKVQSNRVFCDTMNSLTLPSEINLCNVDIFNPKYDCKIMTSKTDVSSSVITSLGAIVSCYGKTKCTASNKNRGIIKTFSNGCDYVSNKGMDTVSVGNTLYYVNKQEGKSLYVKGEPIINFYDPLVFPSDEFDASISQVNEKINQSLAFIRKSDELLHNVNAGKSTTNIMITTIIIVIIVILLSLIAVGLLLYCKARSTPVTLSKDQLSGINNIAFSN

B1: AM22 antibody (antibody, V domains shown)
VH: QVQLVQSGAEVKKPGATVKVSCKISGHTLIKLSIHWVRQAPGKGLEWMGGYEGEVDEIFYAQKFQHRLTVIADTATDTVYMELGRLTSDDTAVYFCGTLGVTVTEAGLGIDDYWGQGTLVTVSS
VL: EIVLTQSPGTLSLSPGERATLSCRASQIVSRNHLAWYQQKPGQAPRLLIFGASSRATGIPVRFSGSGSGTDFTLTINGLAPEDFAVYYCLSSDSSIFTFGPGTKVDFKR
As for B1, the “RSV neutralization (flow cytometry, RSV-GFP on HEp-2 cells), potency relative to palivizumab” value is ~50 fold.
